Results on two sequences are retold here after US12072338B2, “Pharmaceutical peptides for the treatment of inflammatory diseases” (PROTAGONISTS LTD., priority 2007, dated 2024).

Assay [1] addresses T1, MCP-2 (Homo sapiens, UniProt P80075).
T1 construct: purchased 300-15
T1 sequence (P80075 24-99): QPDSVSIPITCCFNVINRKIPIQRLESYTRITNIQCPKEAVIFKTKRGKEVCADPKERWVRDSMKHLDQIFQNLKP
As to the kind of experiment: Micro-array analysis of chemokine binding peptides: MCP-2. As to the method: (§1) (1) Printing: Chemokine (CK) solution (in water) was serially diluted with Print Reagent (GenTel BioSurfaces USA) to final concentrations of 50 μg and 25 μg/ml. BSA/BSA-Biotin control solutions (in water) were diluted with Print Reagent to 100 μg/ml. Amplified stock of M13 phage control (M13KEgIII Cloning Vector, New England Biolabs, Cat.No.E8101S) was stored in Tris Buffered Saline (TBS; pH7.5, 4° C.) and diluted with Print Reagent to the working titre (10^8 pfu/μl). An automated spotting robot (16 pin print tool, 0.4 mm head; BioRobotics, UK) was used to print the CK/BSA control/M13 control, 5 repeats per sample (CK 25 μg/ml and 50 μg/ml; BSA 100 μg/ml; M13 20 μl), on PATH Protein Microarray Slides (GenTel, Prod.No. 2-1005/-1025) at […], and 50-70% relative humidity. Printed micro-array slides were stored at Room Temperature (RT) or 4° C. for at least 24 h before use.
(§2) (2) Blocking: Block Buffer (500 μl/partition; PATHblock, GenTel, Prod.No. 2-1014) was applied to the slide for 1 hour at room temp (RT). After removal of Block Buffer, the slide was air dried for 25 minutes;
(§3) (3) Phage Presented Peptide Binding: Amplified recombinant phage stock was stored in TBS and diluted with Wash Buffer to working titer (10^7 pfu/μl). Recombinant phage suspension (300 μl) was applied per partition and incubated at RT for 1 hour with gentle agitation.
(§4) (4) First Washing: The slides were washed twice with Wash Buffer 300 μl/partition).
(§5) (5) Primary Antibody (Ab) Labeling: The slides were incubated with the Primary Ab (1 mg/ml diluted ×2500 (Wash Reagent), 300 μl; Mouse Anti-M13 monoclonal Ab; Amersham Biosciences, UK; Product Code 27-9420-01) for 45 minutes at RT.
(§6) (6) Second Washing: The slides were washed twice with Wash Buffer (300 μl/partition).
(§7) (7) Secondary Ab Labeling: The slides were incubated with Secondary Ab (1.5 mg/ml diluted ×5000 (Wash Reagent), 300 μl; Cy3-conjugated AffiniPure Goat Anti-Mouse IgG; Jackson ImmunoReserch Labs, USA; Product Code 115-165-062).
(§8) (8) Third Washing: The slides were washed twice with Wash Buffer (300 μl/partition).
(§9) (9) Rinse: the slides were rinsed twice with Rinse Buffer (PATHrinse, GenTel, Prod.No. 2-1018) then dried well.
(§10) (10) Scanning: The peptide-bound, labeled slide was scanned (Laser Intensity 80%, Gain 80%, Resolution 10 μm) with a ScanArray Life Scanner (Packard BioChip Technologies, USA).
(§11) (11) Analysis: Quantitative analysis of micro-array was performed by the SpotReader program of Niles Scientific (USA) and presented as Relative Fluorescence (RF) as a function of CK concentration. Micro-array readout (Cy3 fluorescence) was quantified to determine the relative binding affinities of a CBP for the CKs and by inference, the specificity of the CBP for binding to a CK.

In assay [2] the target is T2, Eotaxin 3 (Homo sapiens, UniProt Q9Y258).
T2 construct: purchased 300-48
T2 sequence (Q9Y258 24-94): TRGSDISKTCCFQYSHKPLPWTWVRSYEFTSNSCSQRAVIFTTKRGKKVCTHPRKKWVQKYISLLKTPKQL
In words: Micro-array analysis of chemokine binding peptides: Eotaxin 3. As to the method: as §1, §2, §3, §4, §5, §6, §7, §8, §9, §10, §11

Assay [3] has as its target T3, MCP-1 (Homo sapiens, UniProt P13500).
T3 construct: purchased 300-04
As to the kind of experiment: Micro-array analysis of chemokine binding peptides: MCP-1. As for the experimental part:
as §1, §2, §3, §4, §5, §6, §7, §8, §9, §10, §11

Assay [4] has as its target T4, Fractalkine (Homo sapiens, UniProt P78423).
T4 construct: purchased 300-31
T4 sequence (P78423 25-100 limits assumed): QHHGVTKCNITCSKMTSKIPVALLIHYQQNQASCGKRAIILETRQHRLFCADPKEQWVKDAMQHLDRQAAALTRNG
As to the kind of experiment: Micro-array analysis of chemokine binding peptides: Fractalkine. As for the experimental part:
as §1, §2, §3, §4, §5, §6, §7, §8, §9, §10, §11

The target of assay [5] is T5, MCP-4 (Homo sapiens, UniProt Q99616).
T5 construct: purchased 300-24
T5 sequence (Q99616 17-98): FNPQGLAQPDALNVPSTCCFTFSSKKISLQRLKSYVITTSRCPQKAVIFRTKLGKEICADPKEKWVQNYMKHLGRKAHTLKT
As to the kind of experiment: Micro-array analysis of chemokine binding peptides: MCP-4. As for the experimental part: as §1, §2, §3, §4, §5, §6, §7, §8, §9, §10, §11

The target of assay [6] is T6, GRO-β (Homo sapiens, UniProt P19875).
T6 construct: purchased 300-39
T6 sequence (P19875 35-107): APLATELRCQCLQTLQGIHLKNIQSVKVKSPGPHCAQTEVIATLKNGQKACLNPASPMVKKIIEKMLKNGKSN
In words: Micro-array analysis of chemokine binding peptides: GRO-β. As to the method: as §1, §2, §3, §4, §5, §6, §7, §8, §9, §10, §11

In assay [7] the target is T7, Eotaxin (Homo sapiens, UniProt P51671).
T7 construct: purchased 300-21
T7 sequence (P51671 24-97): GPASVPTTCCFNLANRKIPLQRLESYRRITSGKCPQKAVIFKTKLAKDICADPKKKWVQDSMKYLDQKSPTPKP
In words: Micro-array analysis of chemokine binding peptides: Eotaxin. As to the method: as §1, §2, §3, §4, §5, §6, §7, §8, §9, §10, §11

In assay [8] the target is T8, Exodus-2 (Homo sapiens, UniProt O00585).
T8 construct: purchased 300-35
T8 sequence (O00585 24-134): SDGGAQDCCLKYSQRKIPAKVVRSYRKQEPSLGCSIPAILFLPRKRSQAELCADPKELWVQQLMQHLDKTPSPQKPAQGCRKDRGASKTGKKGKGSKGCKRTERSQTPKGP
As to the kind of experiment: Micro-array analysis of chemokine binding peptides: Exodus-2. As for the experimental part: as §1, §2, §3, §4, §5, §6, §7, §8, §9, §10, §11

Assay [9] addresses T9, Mig (Homo sapiens, UniProt Q07325).
T9 construct: purchased 300-26
T9 sequence (Q07325 23-125): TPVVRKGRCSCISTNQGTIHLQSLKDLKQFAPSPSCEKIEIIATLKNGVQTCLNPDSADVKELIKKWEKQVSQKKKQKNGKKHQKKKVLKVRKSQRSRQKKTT
As to the kind of experiment: Micro-array analysis of chemokine binding peptides: Mig. The note with it: limit = start of the upper 75% of that peptide's response range. As for the experimental part:
as §1, §2, §3, §4, §5, §6, §7, §8, §9, §10, §11

Assay [10] has as its target T10, Eotaxin 2 (Homo sapiens, UniProt O00175).
T10 construct: purchased 300-33
T10 sequence (O00175 27-119): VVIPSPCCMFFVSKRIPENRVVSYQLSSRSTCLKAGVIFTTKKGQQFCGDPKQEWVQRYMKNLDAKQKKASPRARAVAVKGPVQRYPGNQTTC
As to the kind of experiment: Micro-array analysis of chemokine binding peptides: Eotaxin 2. As for the experimental part: as §1, §2, §3, §4, §5, §6, §7, §8, §9, §10, §11

For assay [11], the target named is T11, TECK (Homo sapiens, UniProt O15444).
T11 construct: purchased 300-45
T11 sequence (O15444 24-150): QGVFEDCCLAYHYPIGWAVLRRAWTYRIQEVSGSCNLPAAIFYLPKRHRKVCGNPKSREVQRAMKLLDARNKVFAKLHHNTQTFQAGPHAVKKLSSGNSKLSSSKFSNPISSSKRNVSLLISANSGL
As to the kind of experiment: Micro-array analysis of chemokine binding peptides: TECK. As to the method:
as §1, §2, §3, §4, §5, §6, §7, §8, §9, §10, §11

The target of assay [12] is T12, RANTES (Homo sapiens, UniProt P13501).
T12 construct: purchased 300-06
T12 sequence (P13501 24-91): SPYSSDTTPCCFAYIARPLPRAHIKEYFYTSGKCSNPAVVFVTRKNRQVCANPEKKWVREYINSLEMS
As to the kind of experiment: Micro-array analysis of chemokine binding peptides: RANTES. As to the method: as §1, §2, §3, §4, §5, §6, §7, §8, §9, §10, §11

Assay [13] deals with T13, I-TAC (Homo sapiens, UniProt O14625).
T13 construct: purchased 300-46
T13 sequence (O14625 22-94): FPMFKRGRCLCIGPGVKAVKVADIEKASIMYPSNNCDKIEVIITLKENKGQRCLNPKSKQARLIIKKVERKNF
As to the kind of experiment: Micro-array analysis of chemokine binding peptides: I-TAC. The settings on record: limit = start of the upper 75% of that peptide's response range. As for the experimental part: as §1, §2, §3, §4, §5, §6, §7, §8, §9, §10, §11

Assay [14] has as its system IL-8. As to the kind of experiment: Micro-array analysis of chemokine binding peptides: IL-8. As for the experimental part: as §1, §2, §3, §4, §5, §6, §7, §8, §9, §10, §11
In assay [15] the target is T14, BCA-1 (Homo sapiens, UniProt O43927).
T14 construct: purchased 300-47
T14 sequence (O43927 23-109): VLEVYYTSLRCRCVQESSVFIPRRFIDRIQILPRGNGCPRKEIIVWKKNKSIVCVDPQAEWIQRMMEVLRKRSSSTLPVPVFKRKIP
As to the kind of experiment: Micro-array analysis of chemokine binding peptides: BCA-1. As for the experimental part:
as §1, §2, §3, §4, §5, §6, §7, §8, §9, §10, §11

Assay [16] has as its target T15, Lymphotactin (Homo sapiens, UniProt P47992).
T15 construct: purchased 300-20
T15 sequence (P47992 22-114): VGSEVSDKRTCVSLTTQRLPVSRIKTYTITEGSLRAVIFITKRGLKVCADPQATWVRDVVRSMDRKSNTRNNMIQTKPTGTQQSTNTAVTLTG
As to the kind of experiment: Micro-array analysis of chemokine binding peptides: Lymphotactin. As to the method: as §1, §2, §3, §4, §5, §6, §7, §8, §9, §10, §11

A value given as a limit tells only on which side of the number the result lay.

Sequence of IL-8 (P10145 28-99 limits assumed): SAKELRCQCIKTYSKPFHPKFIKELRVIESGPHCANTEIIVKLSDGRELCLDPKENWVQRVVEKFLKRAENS
T3 sequence (P13500 24-99): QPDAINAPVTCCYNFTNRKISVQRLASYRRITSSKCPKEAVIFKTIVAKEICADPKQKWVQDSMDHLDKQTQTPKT

As to SYYDDVGL [Ph-p27], the “binding to MCP-2, stated in words” value in assay [1] was “bound”. Further, the “binding to Eotaxin 3, stated in words” value in [2] is on record as “bound”. Further, the “binding to MCP-1, stated in words” value in [3] is “bound”. Moreover, the “binding to Fractalkine, stated in words” value in assay [4] was “bound”. Also, the “binding to MCP-4, stated in words” value in [5] was “bound”. In assay [6], the “binding to GRO-β, stated in words” value was “bound”. Besides, the “binding to Eotaxin, stated in words” value in assay [7] was “bound”. Further, in assay [8], the “binding to Exodus-2, stated in words” value is reported as “bound”. Besides, the “binding to Mig with relatively high affinity (Relative Fluorescence Units)” value in [9] was > 15,000 RFU. Besides, the “binding to Eotaxin 2, stated in words” value in [10] is listed as “bound”. In addition, the “binding to TECK, stated in words” value in assay [11] is on record as “bound”. Further, in [12], the “binding to RANTES, stated in words” value is listed as “bound”. In addition, the “binding to I-TAC with relatively high affinity (Relative Fluorescence Units)” value in assay [13] was > 15,000 RFU. Moreover, the “binding to IL-8, stated in words” value in assay [14] is “bound”. Moreover, the “binding to BCA-1, stated in words” value in assay [15] is “bound”. The “binding to Lymphotactin, stated in words” value in [16] is “bound”.

On to DRYLNIVHAT [Ph-p18], for which, in [1], the “binding to MCP-2, stated in words” value is listed as “bound”. Moreover, in [2], the “binding to Eotaxin 3, stated in words” value is “bound”. Also, the “binding to MCP-1, stated in words” value in [3] is recorded as “bound”. In addition, the “binding to MCP-4, stated in words” value in assay [5] is “bound”. For the same sequence, the “binding to GRO-β, stated in words” value in assay [6] is listed as “bound”. For the same sequence, in assay [7], the “binding to Eotaxin, stated in words” value is recorded as “bound”. The “binding to Mig with relatively high affinity (Relative Fluorescence Units)” value in assay [9] was > 9,000 RFU. In addition, the “binding to Eotaxin 2, stated in words” value in assay [10] is given as “bound”. The “binding to TECK, stated in words” value in [11] is reported as “bound”. For the same sequence, the “binding to RANTES, stated in words” value in [12] is recorded as “bound”. Also, the “binding to I-TAC with relatively high affinity (Relative Fluorescence Units)” value in assay [13] is recorded as > 9,000 RFU. Further, the “binding to IL-8, stated in words” value in [14] is “bound”. Further, the “binding to BCA-1, stated in words” value in assay [15] is listed as “bound”. Moreover, the “binding to Lymphotactin, stated in words” value in assay [16] is “bound”.
